B1: CD24Fc fusion protein (Fc fusion, UniProt P25063 27-56, looked up)
chain: SETTTGTSSNSSQSTSNSGLAPNPTNATTK
notes: Comparator protein; also called CD24Fc protein; not shown: Fc detected by anti-human IgG-Fc antibody
B2: HMGB1-His tag protein (AcroBiosystems, HM1-H5220, HEK293 cell derived) (other, human, UniProt P09429 1-215, looked up)
chain: MGKGDPKKPRGKMSSYAFFVQTCREEHKKKHPDASVNFSEFSKKCSERWKTMSAKEKGKFEDMAKADKARYEREMKTYIPPKGETKKKFKDPNAPKRPPSAFFLFCSEYRPKIKGEHPGLSIGDVAKKLGEMWNNTAADDKQPYEKKAAKLKEKYEKDIAAYRAKGKPDAAKKGVVKAEKSKKKKEEEEDEEDEEDEEEEEDEEDEDEEEDDDDE
notes: Bought reagent; also called recombinant human HMGB1-His tag protein; High Mobility Group Box 1; not shown: His tag

Experiments:
[1] = molecular target: T1, Siglec10-mIgG2aFc fusion protein (AcroBiosystems, SI0-H525b, HEK293 cell derived) (human, UniProt Q96LC7 17-546); experiment: ELISA, Siglec10-mIgG2aFc coated, detection by anti-human IgG-Fc-HRP
T1 construct: Bought reagent; also called recombinant human Siglec-10-mIgGFc protein; not shown: mouse IgG2a Fc
T1 sequence (looked up): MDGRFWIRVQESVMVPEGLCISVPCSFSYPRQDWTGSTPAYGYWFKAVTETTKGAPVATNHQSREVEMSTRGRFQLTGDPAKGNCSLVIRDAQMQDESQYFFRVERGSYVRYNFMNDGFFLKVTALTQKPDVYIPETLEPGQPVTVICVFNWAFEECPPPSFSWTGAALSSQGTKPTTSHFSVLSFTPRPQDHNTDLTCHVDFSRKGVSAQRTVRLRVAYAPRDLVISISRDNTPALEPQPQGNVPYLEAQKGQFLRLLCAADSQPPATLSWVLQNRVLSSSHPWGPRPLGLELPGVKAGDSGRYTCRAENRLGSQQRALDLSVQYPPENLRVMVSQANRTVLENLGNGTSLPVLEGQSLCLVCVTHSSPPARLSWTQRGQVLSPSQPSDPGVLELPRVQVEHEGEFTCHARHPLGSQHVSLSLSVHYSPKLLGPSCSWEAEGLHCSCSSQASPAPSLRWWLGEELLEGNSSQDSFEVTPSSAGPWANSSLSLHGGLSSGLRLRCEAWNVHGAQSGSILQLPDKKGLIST
Procedure: In-brief, 96-well plates were coated (100 μL per well) with 0.2 μg/mL of Siglec10-mIgG2aFc fusion protein (AcroBiosystems, SI0-H525b, HEK293 cell derived) at 4° C. overnight. After blocking with SuperBlock (Thermo, 37515) at room temperature for 1 hour, 100 μL of 2-fold serial dilutions of either AI-072 or CD24Fc (all starting at 1.5 mg/ml) were added. The bound AI-072 or CD24Fc protein was then detected by HRP-labeled goat anti-human IgG-Fc antibody (1:5000, Invitrogen, A18829) followed by the addition of Tetramethylbenzidin (TMB) substrate. After a color development at room temp for 15 min, 2N HCl stop solution was added into the plate. The OD values at a wavelength of 450 nm (OD 450 nm) in each well were then measured.

[2] = molecular target: B2; experiment: ELISA, HMGB1-His coated, detection by anti-human IgG-Fc-HRP
Procedure: In-brief, 96-well plates were coated (100 μL per well) with 0.1 μg/mL HMGB1-His tag protein (AcroBiosystems, HM1-H5220, HEK293 cell derived) at 4° C. overnight. After blocking with SuperBlock (Thermo, 37515) at room temperature for 1 hour, 100 μL of 2-fold serial dilutions of AI-72 or CD24Fc (all starting at 1.5 mg/ml, and diluted in PBST-1% BSA solution containing 1 mM MgCl2 and 1 mM CaCl2) were added. The bound AI-072 or CD24Fc protein was then detected by adding HRP-labeled goat anti-human IgG-Fc antibody (1:1000, Invitrogen, A18829), followed by the addition of tetramethylbenzidin (TMB) substrate. After a color development at room temp for 15 mins, 2N HCl stop solution was then added into the plate. The OD values at a wavelength of 450 nm in each well were then measured.

[3] = molecular target: T2, human IgG1-Fc control protein (human, UniProt P01857-1 100-330 = IgG part, limits assumed); experiment: protein A bead pull-down, SDS-PAGE with Coomassie staining
T2 construct: domain: Fc; Control in the pull-down assay; also called human IgG-Fc control
Procedure: FIGS. 8A-8B illustrate the association of AI-072 protein with human HMGB1 in a pull-down assay. Recombinant HMGB1-His protein sample was incubated with AI-072, human IgG-Fc control, or none for 5 min, then add protein A-conjugated beads to the mixture to capture (or pull-down) the bound proteins. The captured proteins were then separated in an SDS-PAGE gel and visualized by Coomassie Brilliant Blue dye staining. […] As indicated on the top of each gel, lane 1 represents the sample containing HMGB1 only, lane 2 represents the sample containing HMGB1 and human IgG-Fc, and lane 3 represents the sample containing HMGB1 and AI-072, lane M is the protein molecule weight marker sample.
In-brief, 8 μL of 500 μg/mL HMGB1-His protein was mixed with either about 3 μg AI-072 or human IgG1-Fc control protein or none, and set at room temp for 5 min. The mixtures were then incubated with protein A-conjugated beads to capture (or pull-down) the bound proteins. The captured proteins were separated in an SDS-PAGE gel and visualized by Coomassie Brilliant Blue dye staining.

| Binder | EC50 [1] | EC50 [2] | binding result [3] |
| --- | --- | --- | --- |
| B1 | 2.85 µM | 51 µM | – |
| B2 | – | – | no binding (tested: about 3 ug) |

Reference: patent US20240336665A1 (ACROIMMUNE GUANGZHOU BIOTECH, published 2024)
